From the supplement of paper PMC10065799, “High-throughput profiling of sequence recognition by tyrosine kinases and SH2 domains using bacterial peptide display” (eLife, 2023)

Key:
[1] = biological target: FGFR1 (UniProt P11362); experiment: phosphorylation enrichment, bacterial display (enrichment ratio); higher = better substrate or ligand; peptides without Tyr show the background
[2] = tested on: c-Abl (mouse); experiment: as above
[3] = biological target: EPHB2 (UniProt P29323); experiment: as above
Sequence of EPHB2 (P29323 whole entry, looked up): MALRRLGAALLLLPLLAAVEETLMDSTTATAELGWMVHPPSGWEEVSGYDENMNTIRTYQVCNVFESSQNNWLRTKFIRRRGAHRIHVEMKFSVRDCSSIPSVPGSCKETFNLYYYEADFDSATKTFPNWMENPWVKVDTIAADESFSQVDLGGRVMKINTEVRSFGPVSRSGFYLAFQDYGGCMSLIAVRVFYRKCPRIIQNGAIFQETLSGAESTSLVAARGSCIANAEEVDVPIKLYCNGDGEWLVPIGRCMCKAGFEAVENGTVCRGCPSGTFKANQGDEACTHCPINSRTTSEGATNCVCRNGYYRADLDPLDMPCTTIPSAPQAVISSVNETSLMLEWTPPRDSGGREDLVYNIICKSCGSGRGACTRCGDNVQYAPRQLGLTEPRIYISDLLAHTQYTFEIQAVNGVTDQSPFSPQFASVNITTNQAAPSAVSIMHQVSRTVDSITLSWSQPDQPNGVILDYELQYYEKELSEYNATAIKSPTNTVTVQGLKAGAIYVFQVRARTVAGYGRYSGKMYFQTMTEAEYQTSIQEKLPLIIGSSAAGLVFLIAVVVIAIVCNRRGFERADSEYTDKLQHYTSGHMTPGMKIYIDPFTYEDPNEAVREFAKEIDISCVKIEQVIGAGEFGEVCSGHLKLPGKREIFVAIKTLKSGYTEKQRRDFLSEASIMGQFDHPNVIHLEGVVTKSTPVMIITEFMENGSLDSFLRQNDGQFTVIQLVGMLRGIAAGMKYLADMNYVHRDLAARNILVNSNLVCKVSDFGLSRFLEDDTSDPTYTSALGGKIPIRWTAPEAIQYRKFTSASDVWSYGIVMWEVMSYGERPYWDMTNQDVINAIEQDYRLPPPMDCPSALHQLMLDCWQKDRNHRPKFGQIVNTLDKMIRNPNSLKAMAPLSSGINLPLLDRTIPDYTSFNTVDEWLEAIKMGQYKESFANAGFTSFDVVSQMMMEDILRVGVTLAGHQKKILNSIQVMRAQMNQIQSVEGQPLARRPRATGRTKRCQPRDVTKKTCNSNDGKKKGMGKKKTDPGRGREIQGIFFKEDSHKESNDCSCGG

[4] = biological target: MERTK (UniProt Q12866); experiment: as above
[5] = biological target: Fes (UniProt P07332); experiment: as above
[6] = tested on: AncSZ; experiment: as above
[7] = biological target: Jak2 (UniProt O60674); experiment: as above
Sequence of Jak2 (O60674 whole entry, looked up): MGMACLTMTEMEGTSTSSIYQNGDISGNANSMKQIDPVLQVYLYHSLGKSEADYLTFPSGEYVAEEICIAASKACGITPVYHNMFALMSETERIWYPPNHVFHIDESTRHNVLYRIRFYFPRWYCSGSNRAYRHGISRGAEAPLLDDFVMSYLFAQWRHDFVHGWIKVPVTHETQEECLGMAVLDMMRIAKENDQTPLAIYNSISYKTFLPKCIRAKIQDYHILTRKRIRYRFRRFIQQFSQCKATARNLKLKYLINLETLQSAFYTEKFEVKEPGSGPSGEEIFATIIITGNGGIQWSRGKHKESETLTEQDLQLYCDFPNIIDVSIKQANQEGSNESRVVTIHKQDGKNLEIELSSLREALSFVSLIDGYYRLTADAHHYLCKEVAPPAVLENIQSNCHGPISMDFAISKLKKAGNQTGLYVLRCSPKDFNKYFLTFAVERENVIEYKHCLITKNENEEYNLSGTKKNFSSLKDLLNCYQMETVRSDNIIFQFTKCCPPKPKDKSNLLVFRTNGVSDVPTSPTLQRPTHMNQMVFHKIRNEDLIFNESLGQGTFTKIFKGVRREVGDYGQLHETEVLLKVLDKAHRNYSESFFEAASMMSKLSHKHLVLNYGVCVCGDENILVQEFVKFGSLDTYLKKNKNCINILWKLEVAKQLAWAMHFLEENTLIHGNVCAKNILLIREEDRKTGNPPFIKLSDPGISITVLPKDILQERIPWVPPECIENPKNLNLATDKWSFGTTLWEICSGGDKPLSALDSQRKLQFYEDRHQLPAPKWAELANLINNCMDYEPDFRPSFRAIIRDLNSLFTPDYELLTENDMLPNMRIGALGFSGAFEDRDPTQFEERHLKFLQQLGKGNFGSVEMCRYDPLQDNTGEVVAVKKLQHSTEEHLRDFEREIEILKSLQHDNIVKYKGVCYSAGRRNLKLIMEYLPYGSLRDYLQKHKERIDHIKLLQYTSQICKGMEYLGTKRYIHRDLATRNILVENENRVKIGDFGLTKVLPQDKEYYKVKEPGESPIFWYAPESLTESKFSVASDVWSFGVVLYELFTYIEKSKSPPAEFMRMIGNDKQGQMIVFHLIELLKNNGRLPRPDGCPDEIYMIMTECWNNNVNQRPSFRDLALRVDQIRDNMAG

[8] = biological target: Fyn (UniProt P06241); experiment: as above
Sequence of Fyn (P06241 whole entry, looked up): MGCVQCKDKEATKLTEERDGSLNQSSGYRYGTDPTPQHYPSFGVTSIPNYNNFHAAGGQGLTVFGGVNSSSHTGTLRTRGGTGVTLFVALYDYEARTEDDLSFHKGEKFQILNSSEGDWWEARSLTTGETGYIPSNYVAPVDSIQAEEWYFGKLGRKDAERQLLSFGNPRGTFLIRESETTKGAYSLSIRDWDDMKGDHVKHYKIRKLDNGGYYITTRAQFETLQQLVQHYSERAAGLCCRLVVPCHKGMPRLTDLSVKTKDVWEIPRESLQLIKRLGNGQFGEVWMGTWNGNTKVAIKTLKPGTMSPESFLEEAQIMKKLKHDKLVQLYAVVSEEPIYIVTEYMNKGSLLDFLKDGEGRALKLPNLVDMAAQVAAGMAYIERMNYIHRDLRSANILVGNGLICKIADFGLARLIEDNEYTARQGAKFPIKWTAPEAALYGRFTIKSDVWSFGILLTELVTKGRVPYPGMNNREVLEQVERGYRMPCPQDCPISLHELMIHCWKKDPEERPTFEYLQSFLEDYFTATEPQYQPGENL

[9] = biological target: Hck (UniProt P08631); experiment: as above
Sequence of Hck (P08631 whole entry, looked up): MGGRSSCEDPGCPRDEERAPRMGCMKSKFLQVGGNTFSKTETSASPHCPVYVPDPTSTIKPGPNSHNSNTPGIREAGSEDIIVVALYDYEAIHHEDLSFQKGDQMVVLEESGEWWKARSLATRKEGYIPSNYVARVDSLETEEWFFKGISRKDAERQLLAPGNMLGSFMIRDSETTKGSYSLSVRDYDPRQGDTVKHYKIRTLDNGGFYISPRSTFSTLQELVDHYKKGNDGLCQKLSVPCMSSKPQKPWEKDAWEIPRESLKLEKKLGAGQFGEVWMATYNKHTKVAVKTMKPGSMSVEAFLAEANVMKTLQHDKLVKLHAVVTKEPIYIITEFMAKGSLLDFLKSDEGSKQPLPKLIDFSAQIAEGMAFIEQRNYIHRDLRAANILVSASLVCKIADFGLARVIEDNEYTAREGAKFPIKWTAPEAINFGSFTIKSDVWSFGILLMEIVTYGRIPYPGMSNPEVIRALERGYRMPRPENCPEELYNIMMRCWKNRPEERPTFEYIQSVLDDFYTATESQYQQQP

[10] = tested on: Fer (mouse); experiment: as above
[11] = biological target: EPHB1 (UniProt P54762); experiment: as above
Sequence of EPHB1 (P54762 whole entry, looked up): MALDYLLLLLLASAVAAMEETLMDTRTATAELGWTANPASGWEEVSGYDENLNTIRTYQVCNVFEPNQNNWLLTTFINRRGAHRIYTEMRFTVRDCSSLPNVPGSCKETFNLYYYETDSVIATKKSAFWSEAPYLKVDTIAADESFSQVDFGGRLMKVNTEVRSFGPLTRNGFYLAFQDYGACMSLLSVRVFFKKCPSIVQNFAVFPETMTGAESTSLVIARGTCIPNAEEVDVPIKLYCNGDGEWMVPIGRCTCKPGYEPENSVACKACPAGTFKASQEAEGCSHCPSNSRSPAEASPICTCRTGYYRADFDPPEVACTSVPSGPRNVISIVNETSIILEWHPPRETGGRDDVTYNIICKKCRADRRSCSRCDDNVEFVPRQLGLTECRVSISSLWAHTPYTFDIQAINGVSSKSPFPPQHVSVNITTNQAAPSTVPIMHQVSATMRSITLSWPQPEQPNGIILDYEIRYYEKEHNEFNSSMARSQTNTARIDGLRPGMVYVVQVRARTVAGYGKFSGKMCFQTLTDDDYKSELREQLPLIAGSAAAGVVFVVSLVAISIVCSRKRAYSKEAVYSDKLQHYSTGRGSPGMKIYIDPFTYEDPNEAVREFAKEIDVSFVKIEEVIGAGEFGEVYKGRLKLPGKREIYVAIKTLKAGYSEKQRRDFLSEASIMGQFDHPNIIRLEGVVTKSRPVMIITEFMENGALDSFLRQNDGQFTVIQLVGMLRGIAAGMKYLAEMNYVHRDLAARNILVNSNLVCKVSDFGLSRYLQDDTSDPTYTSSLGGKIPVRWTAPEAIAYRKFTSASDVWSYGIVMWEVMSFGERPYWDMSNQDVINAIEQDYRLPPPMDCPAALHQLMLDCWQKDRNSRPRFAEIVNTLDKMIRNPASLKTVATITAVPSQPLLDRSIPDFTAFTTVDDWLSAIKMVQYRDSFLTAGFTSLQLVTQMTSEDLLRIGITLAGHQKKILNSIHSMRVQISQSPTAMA

[12] = biological target: FGFR3 (UniProt P22607); experiment: as above
Sequence of FGFR3 (P22607 whole entry, looked up): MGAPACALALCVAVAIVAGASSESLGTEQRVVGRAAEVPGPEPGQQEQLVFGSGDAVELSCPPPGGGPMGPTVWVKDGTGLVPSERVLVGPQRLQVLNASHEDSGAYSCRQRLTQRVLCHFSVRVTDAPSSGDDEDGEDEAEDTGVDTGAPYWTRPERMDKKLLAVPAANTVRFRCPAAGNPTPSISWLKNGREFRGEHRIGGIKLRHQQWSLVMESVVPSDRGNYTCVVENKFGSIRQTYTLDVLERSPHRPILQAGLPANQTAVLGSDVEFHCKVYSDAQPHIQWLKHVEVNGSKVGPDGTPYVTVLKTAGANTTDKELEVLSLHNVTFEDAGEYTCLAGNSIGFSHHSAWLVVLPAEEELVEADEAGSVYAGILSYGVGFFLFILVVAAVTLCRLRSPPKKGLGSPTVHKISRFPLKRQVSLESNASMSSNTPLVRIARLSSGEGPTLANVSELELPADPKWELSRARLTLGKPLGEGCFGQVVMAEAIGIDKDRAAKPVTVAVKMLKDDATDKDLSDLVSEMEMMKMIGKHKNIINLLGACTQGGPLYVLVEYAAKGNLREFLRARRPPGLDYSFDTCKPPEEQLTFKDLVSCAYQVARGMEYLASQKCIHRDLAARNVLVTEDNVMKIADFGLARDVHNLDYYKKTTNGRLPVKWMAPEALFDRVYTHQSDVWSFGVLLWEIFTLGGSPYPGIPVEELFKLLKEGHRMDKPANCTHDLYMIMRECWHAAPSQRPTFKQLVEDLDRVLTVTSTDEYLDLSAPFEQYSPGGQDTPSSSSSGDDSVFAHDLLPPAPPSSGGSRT

[13] = tested on: c-Src; experiment: as above
[14] = biological target: Grb2 SH2 (UniProt P62993); experiment: SH2 binding enrichment of the phosphorylated peptide, bacterial display (enrichment ratio); higher = better substrate or ligand; peptides without Tyr show the background
[15] = biological target: c-Src SH2; experiment: as above
[16] = biological target: SHP2-C SH2; experiment: as above
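Throughout, for SH2 binding enrichment of the phosphorylated peptide, bacterial display: peptide library displayed on the E. coli surface as eCPX fusions, selected cells deep-sequenced, score is each peptide's frequency after selection divided by its frequency in the input.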
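Throughout, for phosphorylation enrichment, bacterial display: 11-residue human phosphosite peptides and single-mutation variants displayed on the E. coli surface, counted by deep sequencing, each peptide's frequency after selection divided by its frequency in the unselected input library; frequency after pTyr selection over input frequency; kinase dosed for 20-30% of maximal phosphorylation in three min.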

Row | Sequence | phosphorylation enrichment [1] | phosphorylation enrichment [2] | phosphorylation enrichment [3] | phosphorylation enrichment [4] | phosphorylation enrichment [5] | phosphorylation enrichment [6] | phosphorylation enrichment [7] | phosphorylation enrichment [8] | phosphorylation enrichment [9] | phosphorylation enrichment [10] | phosphorylation enrichment [11] | phosphorylation enrichment [12] | phosphorylation enrichment [13] | SH2 binding enrichment [14] | SH2 binding enrichment [15] | SH2 binding enrichment [16]
1 | EELLRYAIVTP [POC5_Y37_H36R] | 0.514 | 0.62 | 0.637 | 3.32 | 0.922 | 0.928 | 0.867 | 0.456 | 0.439 | 0.6 | 0.669 | 0.615 | 0.444 | 0.871 | 9.68 | 14
2 | LNCIFYKDQTG [RS1_Y166_W163C_YF] | 0.563 | 1.24 | 1.34 | 0.798 | 2.08 | 1.56 | 2.06 | 0.552 | 0.774 | 1.44 | 1.1 | 1.06 | 1.31 | 0.75 | 0.502 | 0.659
3 | KRISCYEARFQ [PFKFB3_Y194_S197R_YF] | 0.344 | 0.728 | 0.476 | 0.395 | 0.845 | 0.669 | 0.647 | 0.382 | 0.425 | 0.399 | 0.398 | 0.496 | 0.497 | 0.999 | 0.64 | 0.941
4 | SRDPFYEMLTA [CYTH1_Y382_A386T] | 7.02 | 0.71 | 2.82 | 8.32 | 1.07 | 1.25 | 0.975 | 2.38 | 5.45 | 11 | 4.93 | 4.25 | 3.17 | 0.958 | 2.25 | 0.747
5 | NNFGNYNNQSS [HNRNPA1_Y318_D314N] | 0.381 | 0.626 | 0.393 | 0.326 | 0.632 | 0.564 | 0.432 | 0.382 | 0.354 | 0.379 | 0.366 | 0.708 | 0.32 | 0.805 | 0.337 | 0.607
6 | AFRRGYFDEEM [PLEC_Y2971_YF] | 0.633 | 0.763 | 0.616 | 0.551 | 1.29 | 1.58 | 1.7 | 0.622 | 0.599 | 0.445 | 0.514 | 0.673 | 0.6 | 0.73 | 0.636 | 0.334
7 | PVQAAYQQVVA [HBB_Y131_K133Q] | 0.673 | 0.677 | 0.822 | 0.415 | 0.754 | 0.554 | 0.736 | 0.6 | 0.659 | 0.484 | 0.566 | 0.739 | 0.576 | 0.541 | 1.35 | 1.06
8 | HEEKVYLSRGD [CRACR2A_Y141] | 0.672 | 0.826 | 0.526 | 0.611 | 1.05 | 0.884 | 0.784 | 0.995 | 0.885 | 0.569 | 0.541 | 1.17 | 1.08 | 0.812 | 0.366 | 0.495
9 | ILGRYYETSSI [PAX2_Y73_G76S] | 0.86 | 0.55 | 0.476 | 0.594 | 0.705 | 0.724 | 0.632 | 0.547 | 0.524 | 0.629 | 0.527 | 0.802 | 0.466 | 0.782 | 2.39 | 1.02
10 | GHRPVYSEDEQ [CHST6_Y362_Y358H] | 0.495 | 0.757 | 0.523 | 0.437 | 1.13 | 1.05 | 0.894 | 0.474 | 0.564 | 0.501 | 0.429 | 0.707 | 0.48 | 1.1 | 0.641 | 0.736
11 | SLQSEYVHFGG [CDC14A_Y591_YF] | 1.36 | 0.734 | 0.746 | 0.509 | 0.963 | 1.24 | 0.875 | 0.783 | 0.596 | 0.442 | 1.09 | 0.972 | 0.889 | 0.899 | 0.629 | 0.993
12 | KQMEQYMSFHK [HCN1_Y417_V414M] | 0.408 | 0.416 | 0.369 | 0.419 | 0.573 | 0.5 | 0.516 | 1.47 | 4.18 | 0.313 | 0.393 | 0.547 | 1.76 | 0.822 | 0.576 | 0.429
13 | FSAPNYCFRCG [PPP2CA_Y265_YF] | 0.474 | 0.416 | 0.448 | 0.393 | 0.674 | 0.661 | 0.511 | 0.349 | 0.374 | 0.415 | 0.397 | 0.486 | 0.343 | 1.24 | 0.763 | 0.702
14 | YSPCDYQPCLA [TNS1_Y798_Y796C] | 4.87 | 0.827 | 9.31 | 3.24 | 0.966 | 2.78 | 1.06 | 1.14 | 0.838 | 2.44 | 13.9 | 3.25 | 1.62 | 0.874 | 2.46 | 0.908
15 | AGQEEYSAMRD [HRAS_Y64] | 0.477 | 0.678 | 0.547 | 0.418 | 0.931 | 0.879 | 0.788 | 0.462 | 0.498 | 0.429 | 0.507 | 0.591 | 0.456 | 0.816 | 0.679 | 0.643
16 | HAVEDYQAIVD [CCT7_Y263_T259A] | 0.864 | 1.19 | 1.03 | 3.12 | 1.47 | 1.54 | 1.25 | 0.792 | 0.714 | 0.653 | 0.73 | 1.05 | 0.942 | 1.09 | 0.696 | 0.768
